Data: the supplement of paper PMC7877785
± gives the uncertainty stated by the source.

Test: self-splicing fitness, log relative to wild type (ln ratio); higher = more splicing; Tetrahymena group I intron in knt gene, E. coli kanamycin selection, DiMSum; sequences stand for … in CUCUCU…GGAGGGAAAAGUUAUCAGGCAUGCACCUGGUAGCUAGUCUUUAAACCAAUAGAUUGCAUCGGUUUAAAAGGCAAGACCGUCAAAUUGCGGGAAAGGGGUCAACAGCCGUUCAGUACCAAGUCUCAGGGGAAACUUUGAGAUGGCCUUGCAAAGGGUAUGGUAAUAAGCUGACGGACAUGGUCCUAACCACGCAGCCAAGUCCUAAGUCAACAGAUCUUCUGUUGAUAUGGAUGCAGUUCACAGACUAAAUGUCGGUCGGGGAAGAUGUAUUCUUCUCAUAAGAUAUAGUCGGACCUCUCCUUAAUGGGAGCUAGCGGAUGAAGUGAUGCAACACUGGAGCCGCUGGGAACUAAUUUGUAUGCGAAAGUAUAUUGAUUAGUUUUGGAGUACUCGUGGUCG
Method in brief: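 The eight P1ex-region nucleotides of an intron in the knt kanamycin-resistance gene on pET-22b(+) were all randomised and the library put into E. coli BL21(DE3). Six replicate transformations were grown overnight at 37°C or 30°C on LB agar with or without 25 μg/mL kanamycin, together with 100 μg/mL carbenicillin, 50 μM IPTG and 0.2% rhamnose. Colonies were pooled and amplicon-sequenced on an Illumina HiSeq 2500. Fitness from DiMSum is the error-weighted combination of wild-type-normalised replicate fold changes, kanamycin over none.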

Row | Sequence | self-splicing fitness (ln) (30 °C) | self-splicing fitness (ln) (37 °C)
1 | UCAUAGCAAUAUUACGACCU | -2.73 ± 0.39 | -0.81 ± 0.26
2 | UUUUAGCAAUAUUACGCGAG | -1.15 ± 0.077 | -0.226 ± 0.097
3 | GUUAAGCAAUAUUACGGGGA | -3.04 ± 0.37 | -2.15 ± 0.47
4 | CACUAGCAAUAUUACGUGCA | -2.44 ± 0.17 | -1.99 ± 0.23
5 | CAGGAGCAAUAUUACGAACU | -3.14 ± 0.34 | -3.19 ± 0.32
6 | GUAUAGCAAUAUUACGUGAU | -2.29 ± 0.15 | -1.71 ± 0.17
7 | AACAAGCAAUAUUACGUACC | -1.03 ± 0.083 | 0.125 ± 0.13
8 | GCCCAGCAAUAUUACGUCGA | -1.5 ± 0.082 | -1.09 ± 0.086
9 | CUCUAGCAAUAUUACGGAGA | -1.93 ± 0.47 | -0.951 ± 0.27
10 | UCCCAGCAAUAUUACGAAAC | -3.52 ± 0.44 | -1.93 ± 0.46
11 | CAACAGCAAUAUUACGCUUG | -2.71 ± 0.12 | -1.82 ± 0.14
12 | ACUGAGCAAUAUUACGAUAG | -5.01 ± 0.39 | -1.78 ± 0.17
13 | GUCUAGCAAUAUUACGGUUC | -0.596 ± 0.089 | 0.433 ± 0.096
14 | GCAUAGCAAUAUUACGGGCA | -1.67 ± 0.14 | -0.974 ± 0.12
15 | GCGAAGCAAUAUUACGCAAG | -2.51 ± 0.42 | –
16 | GUCGAGCAAUAUUACGAGAC | – | 0.237 ± 0.43
17 | UGGUAGCAAUAUUACGUUCA | -0.227 ± 0.11 | -0.354 ± 0.14
18 | CGUCAGCAAUAUUACGAUGG | -1.27 ± 0.054 | -0.0354 ± 0.084
19 | ACUUAGCAAUAUUACGUAAA | -2.37 ± 0.2 | -0.419 ± 0.2

Row | Sequence | self-splicing fitness (ln) (30 °C) | self-splicing fitness (ln) (37 °C)
20 | UAGGAGCAAUAUUACGAGUG | -3.74 ± 0.33 | -1.43 ± 0.17
21 | GCACAGCAAUAUUACGUGGU | -3.37 ± 0.12 | -1.82 ± 0.097
22 | CAUUAGCAAUAUUACGUAGA | -0.475 ± 0.11 | -1.51 ± 0.2
23 | AACUAGCAAUAUUACGUCAA | -2.66 ± 0.18 | -2.13 ± 0.15
24 | GCUUAGCAAUAUUACGUUUA | -1.73 ± 0.13 | -1.17 ± 0.12
25 | AUGUAGCAAUAUUACGACCG | -0.834 ± 0.12 | -0.5 ± 0.17
26 | UCCCAGCAAUAUUACGAAGA | -0.348 ± 0.084 | -0.266 ± 0.09
27 | GUGUAGCAAUAUUACGCGGG | -3.73 ± 0.2 | -2.75 ± 0.2
28 | ACCGAGCAAUAUUACGUGUG | -2.5 ± 0.08 | -1.79 ± 0.079
29 | GCAGAGCAAUAUUACGAUUA | -2.28 ± 0.22 | 0.0469 ± 0.18
30 | CCAGAGCAAUAUUACGAGGC | -2.82 ± 0.38 | -1.34 ± 0.41
31 | AAAGAGCAAUAUUACGCUUU | -3.18 ± 0.23 | -3.68 ± 0.36
32 | UAGAAGCAAUAUUACGACAU | -1.569 ± 0.014 | -0.76 ± 0.033
33 | CCAUAGCAAUAUUACGGCUA | -2.48 ± 0.25 | -1.89 ± 0.28
34 | UGCCAGCAAUAUUACGUACU | 0.158 ± 0.14 | -1.19 ± 0.19
35 | GCCGAGCAAUAUUACGGGUU | -3.35 ± 0.17 | -0.886 ± 0.092
36 | ACAGAGCAAUAUUACGAAGG | -3.82 ± 0.23 | -3.32 ± 0.33
37 | AUAAAGCAAUAUUACGGACC | -0.681 ± 0.16 | -0.941 ± 0.24
38 | UCGCAGCAAUAUUACGGAUA | -2.58 ± 0.25 | -2.44 ± 0.26
